Reference: US20230340151A1 (Pfizer, published 2023)

Assays:
[1] = target: T1, GUCY2C_ECD Peptide 14 (human); test: peptide DELFIA ELISA;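 further: epitope mapping using overlapping 20-mer GUCY2C peptides covering residues 1-440, extracellular into transmembrane domain, coated at 20 µg/ml as target antigen and probed with antibodies or GUCY2C-CD3 bispecifics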
T1 peptide: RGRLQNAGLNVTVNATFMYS
Method: (§1) Arrays were reconstituted with acetonitrile to 100 μg/ml and were then further diluted to 20 μg/ml with sodium carbonate/bicarbonate buffer. Purified antibodies or GUCY2c-CD3 bispecifics were then tested by Delfia ELISA for binding to the different peptides using Delfia ELISA methods previously discussed, with diluted peptides used as the target antigen.

[2] = target: T2, GUCY2C_ECD Peptide 19 (human); test: peptide DELFIA ELISA;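 further: epitope mapping using overlapping 20-mer GUCY2C peptides covering residues 1-440, extracellular into transmembrane domain, coated at 20 µg/ml as target antigen and probed with antibodies or GUCY2C-CD3 bispecifics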
T2 construct: also called GUCY2c peptide 19; GUCY2c-ECD peptide number 19
T2 peptide: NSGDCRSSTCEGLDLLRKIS
Method: as §1

[3] = target: T3, GUCY2C_ECD Peptide 21 (human); test: peptide DELFIA ELISA;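 further: epitope mapping using overlapping 20-mer GUCY2C peptides covering residues 1-440, extracellular into transmembrane domain, coated at 20 µg/ml as target antigen and probed with antibodies or GUCY2C-CD3 bispecifics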
T3 peptide: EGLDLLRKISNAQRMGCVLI
Method: as §1

[4] = target: T4, GUCY2C_ECD Peptide 27 (human); test: peptide DELFIA ELISA;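 further: epitope mapping using overlapping 20-mer GUCY2C peptides covering residues 1-440, extracellular into transmembrane domain, coated at 20 µg/ml as target antigen and probed with antibodies or GUCY2C-CD3 bispecifics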
T4 peptide: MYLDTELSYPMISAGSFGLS
Method: as §1

[5] = target: T5, GUCY2C_ECD Peptide 28 (human); test: peptide DELFIA ELISA
T5 peptide: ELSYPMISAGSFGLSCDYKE
Method: as §1

[6] = target: T6, GUCY2C_ECD Peptide 29 (human); test: peptide DELFIA ELISA
T6 peptide: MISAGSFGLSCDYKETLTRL
Method: as §1

[7] = target: T7, GUCY2C_ECD Peptide 31 (human); test: peptide DELFIA ELISA
T7 peptide: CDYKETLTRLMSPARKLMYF
Method: as §1

[8] = target: T8, GUCY2C_ECD Peptide 33 (human); test: peptide DELFIA ELISA
T8 peptide: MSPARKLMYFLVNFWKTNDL
Method: as §1

[9] = target: T9, GUCY2C_ECD Peptide 35 (human); test: peptide DELFIA ELISA
T9 peptide: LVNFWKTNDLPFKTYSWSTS
Method: as §1

[10] = target: T10, GUCY2C_ECD Peptide 42 (human); test: peptide DELFIA ELISA
T10 peptide: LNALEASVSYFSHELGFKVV
Method: as §1

[11] = target: T11, GUCY2C_ECD Peptide 48 (human); test: peptide DELFIA ELISA
T11 peptide: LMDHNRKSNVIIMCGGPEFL
Method: as §1

[12] = target: T12, GUCY2C_ECD Peptide 54 (human); test: peptide DELFIA ELISA
T12 peptide: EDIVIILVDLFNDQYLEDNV
Method: as §1

[13] = target: T13, GUCY2C_ECD Peptide 55 (human); test: peptide DELFIA ELISA
T13 peptide: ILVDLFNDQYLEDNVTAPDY
Method: as §1

[14] = target: T14, GUCY2C_ECD Peptide 57 (human); test: peptide DELFIA ELISA
T14 peptide: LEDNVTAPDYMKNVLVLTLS
Method: as §1

[15] = target: T15, GUCY2C_ECD Peptide 61 (human); test: peptide DELFIA ELISA
T15 peptide: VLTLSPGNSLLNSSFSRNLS
Method: as §1

[16] = target: T16, GUCY2C_ECD Peptide 64 (human); test: peptide DELFIA ELISA
T16 peptide: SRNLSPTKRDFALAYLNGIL
Method: as §1

[17] = target: T17, GUCY2C_ECD Peptide 77 (human); test: peptide DELFIA ELISA
T17 peptide: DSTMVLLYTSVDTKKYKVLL
Method: as §1

[18] = target: T18, GUCY2C_ECD Peptide 81 (human); test: peptide DELFIA ELISA
T18 peptide: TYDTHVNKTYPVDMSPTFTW
Method: as §1

[19] = target: T19, GUCY2C_ECD Peptide 82 (human); test: peptide DELFIA ELISA
T19 peptide: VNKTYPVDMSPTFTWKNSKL
Method: as §1

[20] = target: T20, GUCY2C_ECD Peptide 83 (human); test: peptide DELFIA ELISA
T20 peptide: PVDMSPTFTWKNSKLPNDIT
Method: as §1

[21] = target: T21, GUCY2C_ECD Peptide 84 (human); test: peptide DELFIA ELISA
T21 peptide: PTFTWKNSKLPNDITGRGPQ
Method: as §1

[22] = target: T22, GUCY2C_ECD Peptide 87 (human); test: peptide DELFIA ELISA
T22 peptide: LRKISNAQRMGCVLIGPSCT
Method: as §1

[23] = target: T23, CID1881 (human-chicken GUCY2c chimera) (human/chicken); test: flow cytometry on cells displaying the construct
T23 chain: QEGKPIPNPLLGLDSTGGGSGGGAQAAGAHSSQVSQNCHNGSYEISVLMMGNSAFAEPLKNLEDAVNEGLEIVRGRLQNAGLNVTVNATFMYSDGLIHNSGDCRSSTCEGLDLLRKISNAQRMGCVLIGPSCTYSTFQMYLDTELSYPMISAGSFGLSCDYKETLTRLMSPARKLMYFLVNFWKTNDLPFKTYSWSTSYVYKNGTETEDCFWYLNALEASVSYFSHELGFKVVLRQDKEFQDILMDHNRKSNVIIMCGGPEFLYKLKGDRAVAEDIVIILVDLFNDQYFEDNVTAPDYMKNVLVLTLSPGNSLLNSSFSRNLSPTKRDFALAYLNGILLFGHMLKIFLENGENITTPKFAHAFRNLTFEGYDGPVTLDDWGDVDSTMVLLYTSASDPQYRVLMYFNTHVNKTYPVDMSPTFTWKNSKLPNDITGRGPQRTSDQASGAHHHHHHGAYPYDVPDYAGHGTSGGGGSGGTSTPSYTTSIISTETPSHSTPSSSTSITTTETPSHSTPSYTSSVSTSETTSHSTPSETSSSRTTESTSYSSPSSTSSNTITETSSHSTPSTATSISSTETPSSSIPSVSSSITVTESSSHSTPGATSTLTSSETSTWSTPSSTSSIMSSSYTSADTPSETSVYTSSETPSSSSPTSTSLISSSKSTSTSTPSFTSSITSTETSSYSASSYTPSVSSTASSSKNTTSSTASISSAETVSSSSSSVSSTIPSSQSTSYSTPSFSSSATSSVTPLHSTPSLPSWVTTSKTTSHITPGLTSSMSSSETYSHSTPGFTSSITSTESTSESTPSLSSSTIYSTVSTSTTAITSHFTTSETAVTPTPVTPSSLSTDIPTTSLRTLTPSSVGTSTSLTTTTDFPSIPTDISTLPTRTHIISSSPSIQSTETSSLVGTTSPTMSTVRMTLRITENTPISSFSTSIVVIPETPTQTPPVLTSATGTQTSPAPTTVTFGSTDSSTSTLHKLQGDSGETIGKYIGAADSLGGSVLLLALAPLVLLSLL
From the text: Cells were then washed three times with PBS+0.5% BSA buffer. […] Cells were washed three times with PBS+0.5% BSA buffer and then analyzed on a flow cytometer.
MFI (median fluorescence intensity) of anti-GUCY2c antibody binding to the cells was normalized to expression on cell surface measured by MFI of anti-tag antibodies. All the cells expressed V5 and HA on the cell surface for expression normalization.

[24] = target: T24, Human CD3 on naive human T cells (human, UniProt P07766 23-207); test: flow cytometry titration on naive human T cells (PE-A Geo Mean against concentration in nM)
T24 construct: whole, on cells; on cells it stands in the CD3/TCR complex
T24 sequence (P07766 23-207): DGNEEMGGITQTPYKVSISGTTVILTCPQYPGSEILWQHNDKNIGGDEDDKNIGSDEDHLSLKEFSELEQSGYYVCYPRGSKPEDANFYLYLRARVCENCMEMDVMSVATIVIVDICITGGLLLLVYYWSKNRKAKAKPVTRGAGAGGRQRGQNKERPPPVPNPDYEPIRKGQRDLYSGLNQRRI

B1: GUCY2C-1608 (bispecific antibody)
chain 1: DIQLTQSPSSLSASVGDRVTITCRASESVDYYGSSLLQWYQQKPGKAPKLLIYAASKLASGVPSRFSGSGSGTDFTLTISSLQPEDFATYYCQQTRKAYTFGQGTKLEIKGGGSGGGGEVQLVESGGGLVQPGGSLRLSCAASGFTFSDYYMTWVRQAPGKGLEWVAFIRNQARGYTSDHNPSVKGRFTISRDNAKNSLYLQMNSLRAEDTAVYYCARDRPSYYVLDYWGQGTTVTVSSGCPPCPAPEAAGAPSVFLFPPKPKDTLMISRTPEVTCVVVDVSHEDPEVKFNWYVDGVEVHNAKTKPREEQYNSTYRVVSVLTVLHQDWLNGKEYKCKVSNKALPAPIEKTISKAKGQPREPQVCTLPPSREEMTKNQVSLWCLVKGFYPSDIAVEWESNGQPENNYKTTPPVLDSDGSFFLYSKLTVDKSRWQQGNVFSCSVMHEALHNHYTQKSLSLSPG
chain 2: DIQMTQSPSSLSASVGDRVTITCTSSQSLFNVRSQKNYLAWYQQKPGKAPKLLIYWASTRESGVPSRFSGSGSGTDFTLTISSLQPEDFATYYCKQSYDLFTFGGGTKVEIKGGGGSGGGGEVQLVESGGGLVQPGGSLRLSCAASGFTFSSYWMHWVRQAPGKGLEWIGEIKPSNELTNVHEKFKDRFTISVDKAKNSAYLQMNSLRAEDTAVYYCTRTITTTEGYWFFDVWGQGTLVTVSSGCPPCPAPEAAGAPSVFLFPPKPKDTLMISRTPEVTCVVVDVSHEDPEVKFNWYVDGVEVHNAKTKPREEQYNSTYRVVSVLTVLHQDWLNGKEYKCKVSNKALPAPIEKTISKAKGQPREPQVYTLPPCREEMTKNQVSLSCAVKGFYPSDIAVEWESNGQPENNYKTTPPVLDSDGSFFLVSKLTVDKSRWQQGNVFSCSVMHEALHNHYTQKSLSLSPG
notes: also called GUCY2c CD3 bispecific
DELFIA TRF [1]: 97
DELFIA TRF [2]: 19200
DELFIA TRF [3]: 81
DELFIA TRF [4]: 105
DELFIA TRF [5]: 96.8
DELFIA TRF [6]: 101
DELFIA TRF [7]: 90.2
DELFIA TRF [8]: 87.5
DELFIA TRF [9]: 108
DELFIA TRF [10]: 96.5
DELFIA TRF [11]: 148
DELFIA TRF [12]: 112
DELFIA TRF [13]: 100
DELFIA TRF [14]: 99.8
DELFIA TRF [15]: 126
DELFIA TRF [16]: 116
DELFIA TRF [17]: 98.2
DELFIA TRF [18]: 109
DELFIA TRF [19]: 99.2
DELFIA TRF [20]: 85.8
DELFIA TRF [21]: 133
DELFIA TRF [22]: 102
binding result [23]: binds
Kd [24]: 35.4 nM
